Here are results for two molecules from publication doi:10.1101/2025.06.05.658052 (bioRxiv, 2025).

For series [1], the system named is EppR (TetR-like error-prone polymerase regulator) (Acinetobacter baumannii ATCC 17978). As to the kind of experiment: EMSA.
The series “SEC” concerns the molecule itself. The series is described as follows: SEC. On the technique in general: Size exclusion chromatography separates by hydrodynamic size, large species first.

In general, Kd refers to the concentration at which binding is half-saturated. Low readings indicate a tighter complex, high ones a looser complex.

Take “recA regulatory region (promoter + 5'-UTR), 145 bp”: the dissociation constant (Kd) in series [1] turned out to be 1.1 µM.

B1: His-tagged A. baumannii RecA (natural protein, Acinetobacter baumannii, UniProt A3M645 1-349, looked up)
chain: MDENKSKALQAALSQIEKQFGKNTVMRLGDNTVQAVEAVSTGSLTLDIALGIGGLPKGRIIEIYGPESSGKTTMTLQAIAQCQKSGGTCAFIDAEHALDPQYARKLGVDIDNLLVSQPDNGEQALEIADMLVRSGAIDLIVVDSVAALTPKAEIEGEMGDSHMGLQARLMSQALRKITGNAKRSNCMVIFINQIRMKIGVMFGSPETTTGGNALKFYASVRLDIRRIGQVKEGDEIVGSETKVKVVKNKMAPPFKEAIFQILYGKGTNQLGELVDLAVQQDIVQKAGAWYSYQGNKIGQGKNNVIRYFEENTQIAEEIERNIREQLLTTGTNGAVQIEDEEEPDLLLES
Turning to B1, the binding result in the series “SEC” is on record as “binds”.
